Laboratory results published in US11312781B2, “Antigen binding molecules that bind LIGHT” (Capella Bioscience Ltd., priority 2018, dated 2022).

Target: T1, LIGHT protein (Homo sapiens, UniProt O43557, K214E)
T1 construct: amino acids 74-240 LIGHT (R&D Systems, 664-LI-025); purchased R&D Systems 664-LI-025
Experiment: Hydrogen-deuterium exchange (HDX) mass spectrometry epitope mapping
Format: binding
Parameters: Difference uptake (3B04-control) / Uptake 3B04: unit not given here
Conditions: for Uptake 3B04: average deuterium uptake n = 3
Procedure: The LIGHT protein (R&D Systems 664-LI-025) was solubilised in PBS buffer at a final concentration of 8 μM, whereas the antibodies were maintained at 20 μM in PBS. For complex formation the LIGHT protein was incubated with each antibody separately in 1:5 ratio on ice and HDX measurements were performed 30 min after incubation. All data were recorded on a waters Synapt G2Si equipped with a HDX platform. […] […] Subsequently each sample was quenched with 50 μL of 2M guanidinium chloride in at pH 2. The samples were passed through a pepsin column for 5 min to digest the protein and peptides were separated using a reverse phase chromatography. Data were analysed with DynamX software. Peptides were selected with a maximum length of 15 amino acids and a 5 ppm mass accuracy error. […] The analysis was repeated 3 times for each mAb.
HDX was used as a starting point to identify the epitope of antibody 3B04 binding to the LIGHT protein. A sequence coverage of 69.2% of the LIGHT protein was achieved and the regions that were not observed were due to the presence of a […] and glycosylation. The glycans were not removed from LIGHT in order to preserve the structure of the protein in a native state. […] (Difference in uptake between 3B04 and control mAb, Table 16, values in bold). […] The results from HDX spectrometry were used as a guide to identify a region of interest that was subsequently analysed using alanine scanning.

[1] = LIGHT peptide 194-202 SRVWWDSSF, Exposure (sec) 0.33
[2] = LIGHT peptide 194-202 SRVWWDSSF, Exposure (sec) 1.00
[3] = LIGHT peptide 194-202 SRVWWDSSF, Exposure (sec) 5.00
[4] = LIGHT peptide 194-202 SRVWWDSSF, Exposure (sec) 30.00
[5] = LIGHT peptide 195-202 RVWWDSSF, Exposure (sec) 0.33
[6] = LIGHT peptide 195-202 RVWWDSSF, Exposure (sec) 1.00
[7] = LIGHT peptide 195-202 RVWWDSSF, Exposure (sec) 5.00
[8] = LIGHT peptide 195-202 RVWWDSSF, Exposure (sec) 30.00
[9] = LIGHT peptide 197-202 WWDSSF, Exposure (sec) 0.33
[10] = LIGHT peptide 197-202 WWDSSF, Exposure (sec) 1.00
[11] = LIGHT peptide 197-202 WWDSSF, Exposure (sec) 5.00
[12] = LIGHT peptide 197-202 WWDSSF, Exposure (sec) 30.00
[13] = LIGHT peptide 203-209 LGGVVHL, Exposure (sec) 0.33
[14] = LIGHT peptide 203-209 LGGVVHL, Exposure (sec) 1.00
[15] = LIGHT peptide 203-209 LGGVVHL, Exposure (sec) 5.00
[16] = LIGHT peptide 203-209 LGGVVHL, Exposure (sec) 30.00
[17] = LIGHT peptide 203-214 LGGVVHLEAGEE, Exposure (sec) 0.33
[18] = LIGHT peptide 203-214 LGGVVHLEAGEE, Exposure (sec) 1.00
[19] = LIGHT peptide 203-214 LGGVVHLEAGEE, Exposure (sec) 5.00
[20] = LIGHT peptide 203-214 LGGVVHLEAGEE, Exposure (sec) 30.00

T1 sequence (O43557 74-240 K214E): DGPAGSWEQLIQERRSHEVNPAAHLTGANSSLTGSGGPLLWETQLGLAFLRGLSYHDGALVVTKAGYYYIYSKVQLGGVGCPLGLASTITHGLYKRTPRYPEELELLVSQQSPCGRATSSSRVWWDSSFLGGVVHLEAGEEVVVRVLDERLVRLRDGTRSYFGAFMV

B1: 3B04: parental mouse anti-membrane LIGHT antibody, VL SEQ ID NO 1, VH SEQ ID NO 5; tested as chimeric human IgG4 mAb (antibody, listed as Homo sapiens, V domains shown)
VH: QVQLQQPGAELVRPGASVTLSCKASGYTFTDYEMHWVKQTPVHGLEWIGEIDPETGDTAYSQKFKGKATLTADKSSSTAYMEFRSLTSEDSAVYYCSRETDYFFDYWGQGTTLTVSS
VL: DIQMTQTPASLSASVGETVTITCGASENIYGALNWYQRKQGKSPQLLIYGATNLADGMSSRFSGSGSGRQYSLKISSLHPDDFATYYCQNVLTTPWTFGGGTKLEIKR
Difference uptake (3B04-control) [1]: −0.296
Uptake 3B04 [1]: 0.744
Difference uptake (3B04-control) [2]: −0.443
Uptake 3B04 [2]: 0.885
Difference uptake (3B04-control) [3]: −0.405
Uptake 3B04 [3]: 1.159
Difference uptake (3B04-control) [4]: −0.656
Uptake 3B04 [4]: 1.392
Difference uptake (3B04-control) [5]: −0.254
Uptake 3B04 [5]: 0.393
Difference uptake (3B04-control) [6]: −0.399
Uptake 3B04 [6]: 0.480
Difference uptake (3B04-control) [7]: −0.474
Uptake 3B04 [7]: 0.631
Difference uptake (3B04-control) [8]: −0.756
Uptake 3B04 [8]: 0.805
Difference uptake (3B04-control) [9]: −0.187
Uptake 3B04 [9]: 0.240
Difference uptake (3B04-control) [10]: −0.269
Uptake 3B04 [10]: 0.336
Difference uptake (3B04-control) [11]: −0.217
Uptake 3B04 [11]: 0.501
Difference uptake (3B04-control) [12]: −0.252
Uptake 3B04 [12]: 0.603
Difference uptake (3B04-control) [13]: −0.029
Uptake 3B04 [13]: 0.145
Difference uptake (3B04-control) [14]: −0.027
Uptake 3B04 [14]: 0.147
Difference uptake (3B04-control) [15]: −0.014
Uptake 3B04 [15]: 0.237
Difference uptake (3B04-control) [16]: −0.052
Uptake 3B04 [16]: 0.384
Difference uptake (3B04-control) [17]: −0.050
Uptake 3B04 [17]: 0.202
Difference uptake (3B04-control) [18]: −0.033
Uptake 3B04 [18]: 0.266
Difference uptake (3B04-control) [19]: −0.087
Uptake 3B04 [19]: 0.399
Difference uptake (3B04-control) [20]: −0.081
Uptake 3B04 [20]: 0.807
Epitope defined by HDX (soluble LIGHT): residues 195-197 of soluble LIGHT
